From patent US20160264649A1

Experiments:
Test in all cases: cell-based or functional assay
[1] = biological target: HIV-1 MGRM-A-014 Env (HIV-1)
[2] = biological target: HIV-1 MGRM-AG-013 Env (HIV-1)
[3] = biological target: HIV-1 MGRM-A-005 Env (HIV-1)
[4] = biological target: HIV-1 Env of isolate MG RM-C-020 (subtype C) (HIV-1)
[5] = biological target: HIV-1 MGRM-A-012 Env (HIV-1)
[6] = biological target: HIV-1 Env of isolate MG RM-C-026 (subtype C) (HIV-1)
[7] = biological target: HIV-1 MGRM-AE-007 Env (HIV-1)
[8] = biological target: HIV-1 MGRM-A-011 Env (HIV-1)
[9] = biological target: HIV-1 MGRM-AG-012 Env (HIV-1)
[10] = biological target: HIV-1 Env of isolate MG RM-C-023 (subtype C) (HIV-1)
HIV-1 CMU02 Env (HIV-1) = biological target: HIV-1 CMU02 Env (HIV-1)
[11] = biological target: HIV-1 MGRM-A-006 Env (HIV-1)
[12] = biological target: HIV-1 MGRM-AE-001 Env (HIV-1)
[13] = biological target: HIV-1 94KE105 Env (HIV-1)
[14] = biological target: HIV-1 MGRM-A-008 Env (HIV-1)
[15] = biological target: HIV-1 MGRM-AG-003 Env (HIV-1)
[16] = biological target: HIV-1 92RW008 Env (HIV-1)
[17] = biological target: HIV-1 92UG037 Env (HIV-1)
[18] = biological target: HIV-1 Env of isolate MG RM-C-019 (subtype C) (HIV-1)
[19] = biological target: HIV-1 MGRM-AG-011 Env (HIV-1)
[20] = biological target: HIV-1 92WR009 Env (HIV-1)
[21] = biological target: HIV-1 92WR020 Env (HIV-1)
[22] = biological target: HIV-1 MGRM-AG-009 Env (HIV-1)
[23] = biological target: HIV-1 MGRM-AG-006 Env (HIV-1)
[24] = biological target: HIV-1 MGRM-A-003 Env (HIV-1)
[25] = biological target: HIV-1 MGRM-A-007 Env (HIV-1)
[26] = biological target: HIV-1 MGRM-A-013 Env (HIV-1)
[27] = biological target: HIV-1 93WR029 Env (HIV-1)
[28] = biological target: HIV-1 92WR026 Env (HIV-1)
[29] = biological target: HIV-1 92UG031 Env (HIV-1)
[30] = biological target: HIV-1 Env of isolate MG RM-C-028 (subtype C) (HIV-1)
[31] = biological target: HIV-1 MGRM-AG-008 Env (HIV-1)
[32] = biological target: HIV-1 Env of isolate MG RM-C-025 (subtype C) (HIV-1)
[33] = biological target: HIV-1 MGRM-AE-005 Env (HIV-1)
[34] = biological target: HIV-1 Env of isolate MG RM-C-024 (subtype C) (HIV-1)
[35] = biological target: HIV-1 92WR024 Env (HIV-1)
[36] = biological target: HIV-1 MGRM-A-010 Env (HIV-1)
[37] = biological target: HIV-1 MGRM-AE-006 Env (HIV-1)
[38] = biological target: HIV-1 MGRM-AE-003 Env (HIV-1)
[39] = biological target: HIV-1 MGRM-AG-002 Env (HIV-1)
[40] = biological target: HIV-1 MGRM-A-002 Env (HIV-1)
[41] = biological target: HIV-1 Env of isolate MG RM-C-027 (subtype C) (HIV-1)
[42] = biological target: HIV-1 MGRM-A-001 Env (HIV-1)
[43] = biological target: HIV-1 MGRM-A-004 Env (HIV-1)
[44] = biological target: HIV-1 MGRM-AE-008 Env (HIV-1)
[45] = biological target: HIV-1 MGRM-AE-002 Env (HIV-1)
[46] = biological target: HIV-1 MGRM-A-009 Env (HIV-1)
[47] = biological target: HIV-1 92TH021 Env (HIV-1)
[48] = biological target: HIV-1 MGRM-AE-004 Env (HIV-1)
[49] = biological target: HIV-1 MGRM-AG-005 Env (HIV-1)
HIV-1 VLGCA1 Env (HIV-1) = biological target: HIV-1 VLGCA1 Env (HIV-1)
[50] = biological target: HIV-1 92WR021 Env (HIV-1)
[51] = biological target: HIV-1 93UG077 Env (HIV-1)
[52] = biological target: HIV-1 MGRM-AG-001 Env (HIV-1)
[53] = biological target: HIV-1 94UG103 Env (HIV-1)
[54] = biological target: HIV-1 Env of isolate MG RM-C-022 (subtype C) (HIV-1)

Measured: IC50

5343_B08 (PGT-135) (antibody)
0.636 µg/mL: [1]
1.42 µg/mL: [16]
0.061 µg/mL: [10]
0.264 µg/mL: [18]
3.67 µg/mL: [17]
0.063 µg/mL: [13]
41.9 µg/mL: [9]
17.9 µg/mL: [23]
4 ng/mL: [6]
0.068 µg/mL: [28]
0.067 µg/mL: [21]
1.47 µg/mL: [30]
> 50 µg/mL: all other assays above
